Target: Mcl-1 (myeloid cell leukemia-1), recombinant protein (UniProt Q07820)
Experiment: SPR

IC50: 62 nM
Substance: Noxa BH3 peptide

Reference: article PMC4174574
